The record followed here is patent publication US20220169997.

Series [1] has as its system PR405: SP(HSA)-PTEN-L-MMP2/9-HSA-6xHis.
The subject of series [2] is PR402: SP(HSA)-PTEN-L-HSA-6xHis.
The test system of series [3] is PR406: SP(HSA)-PTEN-L-cathepsin B-HSA-6xHis.
Series [4] has as its system PR408: SP(HSA)-PTEN-L-cathepsinB**-HSA-6xHis.
For series [5], the system named is PR407: SP(HSA)-PTEN-L-cathepsin B*-HSA-6xHis.

Recombinant active MMP2 protease (Enzo cat. #BML-SE237-0010), sequence (chain, as listed by the source): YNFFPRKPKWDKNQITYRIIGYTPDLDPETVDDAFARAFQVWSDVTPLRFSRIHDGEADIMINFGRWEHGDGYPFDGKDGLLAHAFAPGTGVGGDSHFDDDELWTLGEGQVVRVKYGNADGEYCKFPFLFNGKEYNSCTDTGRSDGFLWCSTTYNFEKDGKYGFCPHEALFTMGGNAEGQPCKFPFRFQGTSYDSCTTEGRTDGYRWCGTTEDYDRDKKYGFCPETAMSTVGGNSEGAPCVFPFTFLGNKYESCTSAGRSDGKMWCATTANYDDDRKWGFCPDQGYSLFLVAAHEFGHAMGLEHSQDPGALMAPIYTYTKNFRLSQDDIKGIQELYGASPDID

Turning to Active CATSB (BioVision #7580-5), the “in vitro cleavage of the fusion in CHO-3E7 supernatant (0.3 µg/ml CATSB), WB with F-1 anti-PTEN (no cleavage)” value in series [1] is “PR405 (SEQ ID NO:129; cDNA SEQ ID NO:157) was not cleaved by CATSB”; in series [3] it was “though it did not cleave PR406 (SEQ ID NO:130; cDNA SEQ ID NO:158)”. Besides, in series [2], the “in vitro cleavage of the fusion in CHO-3E7 supernatant, WB with F-1 anti-PTEN (no cleavage)” value was “PR402 was not appreciably cleaved by either recombinant MMP2 or CATSB”.
For “Recombinant active MMP2 protease (Enzo cat. #BML-SE237-0010)”, the “in vitro cleavage of the fusion in CHO-3E7 supernatant, WB with F-1 anti-PTEN (no cleavage)” value in series [4] is reported as “MMP2 did however cleave its consensus site (SEQ ID NO:165) on PR405 only”; in series [5] it was “MMP2 did however cleave its consensus site (SEQ ID NO:165) on PR405 only”; in series [2], “PR402 was not appreciably cleaved by either recombinant MMP2 or CATSB”; in series [3], “MMP2 did however cleave its consensus site (SEQ ID NO:165) on PR405 only”. The “in vitro cleavage of the fusion in CHO-3E7 supernatant (20 nM MMP2, 0/4/21 h), WB with F-1 anti-PTEN” value in series [1] is reported as “MMP2 did however cleave its consensus site (SEQ ID NO:165) on PR405 only; this cleavage released a PTEN-L-like fragment (˜70 KDa)”.
